Laboratory results taken from PMC4533164, “Approaching rational epitope vaccine design for hepatitis C virus with meta-server and multivalent scaffolding” (Scientific Reports, 2015).

B1: human neutralizing antibody IGH526 (antibody, V domains shown)
VH: VQLLEQSGAEVKRPGASVKVSCKASGYTFTSYAIHWVRQAPGQRLEWMGWINPGNGNAKYSQRFQGRVIISRDTSATTSYMELSSLTSEDTAVYSCARDRGFDLLTGHYLGLDPWGQGTLVTVSS
VL: ELTLTQPASASATPGQRVTISCSGSSSNIGGNTVNWYQHLPGAAPKLLIHNNDLRPSGVPDRFSGSKSGTSASLAVSGLQSEDEADYFCAAWDDGLNGWVFGGGTKLTVL
notes: Captured on anti-human Fc biosensors and detected with anti-human IgG, so it carried a human Fc in the assays; also called nAb IGH526

Tests used:
1VQO_U_ES-ferritin [1] = target: 1VQO_U_ES-ferritin (UniProt Q9ZLI1); experiment: native gel or EMSA; blue native (BN) PAGE of the purified nanoparticle, Coomassie blue staining
1VQO_U_ES-ferritin [2] = target: T1, 1VQO_U_ES-ferritin (UniProt Q9ZLI1); experiment: ELISA; HCV antigen coated on 96-well plates overnight at 4 °C; antibody added at a maximum of 2 μg/ml in a 5-fold dilution series, 1 h at RT; detected with peroxidase goat anti-human IgG, read at 450 nm; details: both partners purified
T1 construct: ferritin subunit beginning at Asp5; 24 copies on the particle; also called E1 nanoparticle antigen; source: HEK293F, transiently expressed, purified (Ni Sepharose excel, SEC); copies: 24

Molecule	stoichiometry N (1VQO_U_ES-ferritin [1])	binding result (1VQO_U_ES-ferritin [2])
1VQO_U_ES-ferritin (from UniProt Q9ZLI1 5-167)	24	–
B1	–	binds
